{
  "source": "patent US8604172B2",
  "about": "“Humanized antibody compositions and methods for binding lysophosphatidic acid” (Lpath, Inc., priority 2009, dated 2013)",
  "molecules": {"B1": {"name": "LT3000: Murine anti-LPA monoclonal antibody clone B7, IgG1k, renamed Lpathomab, also known as LT3000; hybridoma 504B7.1, ATCC PTA-8420 (antibody, V domains shown)", "VH": "QVQLQQSGAELVRPGTSVKVSCKASGYGFINYLIEWIKQRPGQGLEWIGLINPGSDYTNYNENFKGKATLTADKSSSTAYMHLSSLTSEDSAVYFCARRFGYYGSGNYFDYWGQGTTLTVSS", "VL": "DVVMTQTPLSLPVSLGDQASISCTSGQSLVHINGNTYLHWYLQKPGQSPKLLIYKVSNLFSGVPDRFSGSGSGTDFTLKISRVEAEDLGVYFCSQSTHFPFTFGTGTKLEIK"}},
  "key": {"[1]": {"test_system": "SKOV3 cells", "assay": "Taxol-induced apoptosis / caspase activity in SKOV3 cells", "assay_type": "cell-based, human", "experimental": "The ability of LPA to protect ovarian tumor cells against apoptosis when exposed to clinically-relevant levels of the chemotherapeutic agent, paclitaxel (Taxol) was investigated. […] LPA protected SKOV3 cells from Taxol-induced apoptosis. Apoptosis was assayed by measurement of the caspase activity as recommended by the manufacturer (Promega). As anticipated, LPA protected most of the cancer cell lines tested from taxol-induced cell death. […] Moreover, the anti-LPA antibody was able to remove the protection provided by serum. Serum is estimated to contain about 5-20 uM LPA. […] Taxol-induced caspase activation was enhanced by the addition of LT3000 to the culture medium."}, "[2]": {"assay": "LPA competition ELISA (C18:0 LPA coat)", "assay_type": "binding", "settings": "LPC, PA, 14:0 and 18:1 LPA, cPA, PC", "experimental": "The specificity of the humanized antibody was determined by competition ELISA. C18:0 LPA coating material was diluted to 0.33 ug/ml with carbonate buffer (100 mM NaHCO3, 33.6 mM Na2CO3, pH 9.5). Plates were coated with 100 ul/well of coating solution and incubated at 37° C. for 1 hour. The plates were washed 4 times with PBS ([…], pH 7.4) and blocked with 150 ul/well of PBS, 1% BSA, 0.1% tween-20 for 1 h at room temperature. The humanized, anti-LPA antibodies were tested against lipid competitors (14:0 LPA (Avanti, Cat. No 857120), 18:1 LPA (Avanti, Cat. No 857130), 18:1 LPC (Avanti, Cat. No 845875), cLPA (Avanti, Cat. No 857328), 18:1 PA (Avanti, Cat. No 840875), PC (Avanti, Cat. No 850454) at 5 uM, 2.5 uM, 1.25 uM, 0.625 uM, and 0.0 uM. The antibody was diluted to 0.5 ug/ml in PBS, 0.1% tween-20 and combined with the lipid samples at a 1:3 ratio of antibody to sample on a non-binding plate. The plates were washed 4 times with PBS and incubated for 1 hour at room temperature with 100 ul/well of the primary antibody/lipid complex. Next the plates were washed 4 times with PBS and incubated for 1 h at room temperature with 100 […] of HRP-conjugated goat anti-human antibody diluted 1:20,000 in PBS, 1% BSA, 0.1% tween-20. […] The optical density (OD) was measured at 450 nm using a Thermo Multiskan EX. […]"}, "[3]": {"assay": "Competition ELISA specificity, competitor Cer", "assay_type": "binding", "settings": "maximum inhibition, n = 3", "experimental": "The specificity of the anti-LPA mAbs was assessed for their binding to LPA related biolipids such as distearoyl-phosphatidic acid, lysophosphatidylcholine, S1P, ceramide and ceramide-1-phosphate."}, "[4]": {"test_system": "B16-F10 murine melanoma", "assay": "B16-F10 murine melanoma experimental lung metastasis", "parameters": "species or system C57BL/6 mice", "settings": "mouse, in vivo", "experimental": "Study: The highly metastatic murine melanoma (B16-F10) was used to examine the therapeutic effect of anti-LPA mAbs on metastasis in vivo. […] 4 week old female (C57BL/6) mice received an injection of B16-F10 murine melanoma tumor cells (100 uL of 5×10^4 cells/animal) via the tail vein. Mice (10 per group) were administered 25 mg/kg of the anti-LPA mAb (either B3 or B7) or saline every three days by i.p. injection. After 18 days, lungs were harvested and analyzed. The pulmonary organs are the preferred metastatic site of the melanoma cells, and were therefore closely evaluated for metastatic nodules. The lungs were inflated with 10% buffered formalin via the trachea, in order to inflate and fix simultaneously, so that even small foci could be detectable on histological examination. Lungs were separated into five lobes and tumors were categorized by dimension (large >5 mm; medium 1-4 mm; small <1 mm) and counted under a dissecting microscope. […] For animals treated with mAb B3, large tumors were reduced by 21%, medium tumors by 17% and small tumors by 22%. Statistical analysis by student's T-test gave a p<0.05 for number of small tumors in animals treated with mAb B3 vs saline."}, "[5]": {"assay": "BiaCore surface plasmon resonance and direct binding ELISA of LT3000", "description": "The murine antibody is a full-length IgG1k isotype antibody composed of two identical light chains and two identical heavy chains with a total molecular weight of 155.5 kDa."}, "[6]": {"test_system": "SKOV3 tumor", "assay": "SKOV3 ovarian tumor progression in nude mice", "assay_type": "in vivo", "settings": "with lowering of serum and ascites IL-8, IL-6, GM-CSF", "experimental": "Human mAb LT3015 reduced ovarian tumor SKOV3 progression and circulating cytokines in biological fluids. Nude mice were engrafted with either 10 mg/kg LT3015, vehicle, or 2 mg/kg paclitaxel (Taxol). After 56 days, mice were sacrificed and the peritoneal cavities were analyzed for tumor burden and ascites fluid accumulation. Tumors were harvested and final tumor weights were determined along with ascites volumes. Data were analyzed by ANOVA and student's t-test analysis. […] Serum and ascites levels of IL-6, IL-8, GM-CSF and VEGF were measured using ELISA kits from R&D systems, Minneapolis Minn."}, "[7]": {"assay": "Competition ELISA (18:1 LPA coat), competitor 18:1 LPA", "assay_type": "binding", "settings": "maximum inhibition", "experimental": "Many isoforms of LPA have been identified to be biologically active and it is preferable that the mAb recognize all of them to some extent to be of therapeutic relevance. The specificity of the anti-LPA mAbs was evaluated utilizing a competition assay in which the competitor lipid was added to the antibody-immobilized lipid mixture.\nCompetition ELISA assays were performed with the anti-LPA mAbs to assess their specificity. 18:1 LPA was captured on ELISA plates. Each competitor lipid (up to 10 uM) was serially diluted in BSA (1 mg/ml)-PBS and then incubated with the mAbs (3 nM). Mixtures were then transferred to LPA coated wells and the amount of bound antibody was measured with a secondary antibody. Data are normalized to maximum signal (A450) and are expressed as percent inhibition. Assays were performed in triplicate. IC50: Half maximum inhibition concentration; MI: Maximum inhibition (% of binding in the absence of inhibitor); - - -: not estimated because of weak inhibition. A high inhibition result indicates recognition of the competitor lipid by the antibody."}, "[8]": {"assay": "Pharmacokinetics of Lpathomab in mice", "assay_type": "in vivo", "experimental": "Preliminary PK studies were conducted with Lpathomab. For IV dosed groups, mice were injected with a single 30 mg/kg dose and sacrificed at time points up to 15 days. Antibody was also given via i.p. administration and animals were sacrificed during the first 24 hrs to compare levels of mAb in the blood over this period of time for different routes of delivery. Pharmacokinetic parameters were assessed by WinNonlin. Three mice were sacrificed at each time point and plasma samples were collected and analyzed for mAb levels by ELISA."}},
  "data": [
    {"molecule": "B1", "values": [
      {"measurement": "LPA protection from death induced by chemotherapeutic agent (Taxol)", "setting": "[1]; LPA responsive cells, 24 h", "value": "blocked the ability of LPA to protect cells from death"},
      {"measurement": "Apoptosis, % Induction (over LPA + TAXOL taken as 100)", "setting": "[1]; Lpathomab 150 μg/mL, 1 μM Taxol, 1 μM 18:1 LPA, n = 1", "value": 79, "unit": "%"},
      {"measurement": "Taxol-induced caspase activation", "setting": "[1]; SKOV3, serum-containing culture medium", "value": "enhanced"},
      {"measurement": "cross-reactivity", "setting": "[2]", "value": "no cross-reactivity"},
      {"measurement": "MI (%), Cer", "setting": "[3]", "value": 1, "unit": "%"},
      {"measurement": "metastatic spread of B16-F10 cells to lungs", "setting": "[4]", "value": "reduced"},
      {"measurement": "Kd", "setting": "[5]", "value": "0.001 to 0.05", "unit": "nM"},
      {"measurement": "SKOV3 tumor progression", "setting": "[6]", "value": "significantly reduced"},
      {"measurement": "MI, 18:1 LPA", "setting": "[7]", "value": 100, "unit": "%"},
      {"measurement": "time until fully distributed to the blood", "setting": "[8]; i.p. administration", "value": "6 to 12", "unit": "h"},
      {"measurement": "half-life", "setting": "[8]; i.v. administration, listed as murine antibody", "value": "~96", "unit": "h"}
    ]}
  ]
}
